Source: patent US20250368684A1, “NEW EGFRVIII-BINDING PEPTIDES, CONJUGATES AND USES THEREOF” (NANOTHERA BIOSCIENCES, INC., priority 2021, published 2025)
No end group written: not given here. *: point of attachment. FITC = O=C1OC2(c3ccc(O)cc3Oc3cc(O)ccc32)c2ccc(NC(=S)*)cc21; Ahx = NCCCCCC(=O)O

Key:
[1] = target: T1, CLTH/EGFRvIII cells expressing hEGFRvIII (Homo sapiens, UniProt P00533, DELINS30-297G); test: Flow cytometry binding of phage displayed peptides on hEGFRvIII cells; settings: phage displayed peptide, vs hEGFR WT and 293T cells
T1 construct: host or cells: CLTH/EGFRvIII, established from human embryo kidney cells
From the text: (§1) 293T human embryo kidney cells (Sigma; #85120602-1VL), CLTH/EGFR WT cells (Celther; #CL 01010-CLTH) and CLTH/EGFRvIII cells (Celther; #CL 01001-CLTH) were purchased from Sigma and Celther accordingly. CLTH/EGFR WT and CLTH/EGFRvIII cell lines are established from human embryo kidney cells to stably express EGFR WT and EGFRvIII proteins respectively. The three types of cells were maintained in Dulbecco's modified Eagle media (high glucose) supplemented with 10% fetal bovine serum (FBS), 100 U/mL penicillin, […] streptomycin and 1% MEM NEAA. The cells were cultured at 37° C. in a humidified atmosphere containing 5% CO2.
Cell cultures and flow cytometry experiments with phages or peptides were performed by Institut Mondor de Recherche Biomédicale (IMRB U955, France). […] Anti-IgG1 conjugated to phycoerythrin (PE) (Miltenyi Biotec) was used as a secondary antibody to read the fluorescence of PE. […]
On phages. […] Cells were analyzed by flow cytometry on a MACSQuant Analyser 16 (Miltenyi Biotec) using the MACS Quantify software to acquire and process the data. Viobility™ 405/520 fixable dye was excited at 405 nm and fluorescence was collected with the 525/50 nm filter. PE was excited at 488 nm and fluorescence was collected with the 579/34 nm filter. Viable cells were gated, and PE fluorescence intensity was recorded.

[2] = target: T2, EGFRvIII cells (expressing EGFRvIII) (Homo sapiens, UniProt P00533, DELINS30-297G); test: Flow cytometry cellular binding of FITC-Ahx-peptides on EGFRvIII cells; settings: for Normalized MFI vIII: 10 µM FITC-Ahx-peptide, 20 min at RT, EGFRvIII cells
T2 construct: host or cells: CLTH/EGFRvIII, established from human embryo kidney cells
From the text: as §1
(§2) On FITC-Ahx-peptides. Flow cytometry analysis was also performed to quantitatively analyze the binding affinity of the synthetized peptides to the different cell types. Briefly, 293T, CLTH/EGFR WT and CLTH/EGFRvIII cells (100 000 cells, 500 μL) were plated in 24-well plates and incubated overnight at 37° C. in a humidified atmosphere containing 5% CO2 overnight. […] Cells were analyzed by flow cytometry on a MACSQuant Analyser 16 (Miltenyi Biotec) using the MACS Quantify software to acquire and process the data. LIVE/DEAD™ Fixable dye was excited at 640 nm and fluorescence was collected with the 785/62 nm filter. FITC was excited at 488 nm and fluorescence was collected with the 525/50 nm filter. Viable cells were gated, FITC fluorescence intensity was recorded and the mean fluorescence intensity (MFI) was measured. MFI values were then normalized by substracting MFI from blank cells and dividing by the correction factor determined using a spectrofluorimeter.
(§3) Since FITC fluorescence can be impacted by the nature of the amino acids in the peptide sequence and since the conjugation rate of FITC in the peptide synthesis can fluctuate, it was needed to measure a correction factor according to the fluorescence intensity of each peptide. As flow cytometry cannot analyze fluorescence of small molecules, a spectrofluorimeter was used in similar conditions (excitation and emission) to the flow cytometry conditions.

293T cells = test: Flow cytometry cellular binding of FITC-Ahx-peptides on 293T cells; parameters: species or system human; settings: 10 µM FITC-Ahx-peptide, 20 min at RT
From the text: as §1, §2
as §3, with “conditions. […] Linear regressions were determined for each peptide. […]” for “conditions.”

[3] = target: T3, EGFR WT cells (expressing EGFR WT) (Homo sapiens, UniProt P00533); test: Flow cytometry cellular binding of FITC-Ahx-peptides on EGFR WT cells; settings: 10 µM FITC-Ahx-peptide, 20 min at RT
T3 construct: host or cells: CLTH/EGFR WT, established from human embryo kidney cells
From the text: as §1
as §2, with “types.” for “types. Briefly, 293T, CLTH/EGFR WT and CLTH/EGFRvIII cells (100 000 cells, 500 μL) were plated in 24-well plates and incubated overnight at 37° C. in a humidified atmosphere containing 5% CO2 overnight.”, “spectrofluorimeter. […]” for “spectrofluorimeter.”

[4] = target: human wild type EGF receptor (EGFR WT) on CLTH/EGFR WT cells (human) (UniProt P00533); test: flow cytometry, 10 uM FITC-Ahx-peptide, 20 min RT, CLTH/EGFR WT cells; MFI minus blank cells, divided by correction factor
[5] = target: T4, human EGF receptor variant III (EGFRvIII) on CLTH/EGFRvIII cells (human, UniProt P00533 25-1210); test: flow cytometry, phage on CLTH/EGFRvIII cells, anti-M13-biotin plus anti-biotin-PE
T4 construct: whole, on cells

[6] = target: human EGF receptor variant III (EGFRvIII) on CLTH/EGFRvIII cells (human) (UniProt P00533); test: flow cytometry, normalized MFI on EGFRvIII cells over normalized MFI on EGFR WT cells
[7] = target: human EGF receptor variant III (EGFRvIII) on CLTH/EGFRvIII cells (human) (UniProt P00533); test: flow cytometry, 10 uM FITC-Ahx-peptide, 20 min RT, CLTH/EGFRvIII cells; MFI minus blank cells, divided by correction factor

## NESGITRIALQD (Peptide selected from the NGS analysis, not showing specific binding to hEGFRvIII cells in flow cytometry) [peptide selected from NGS analysis of biopanning]
[1]
  specific binding to hEGFRvIII: did not show specific binding

## FITC-Ahx-YHWYGYTPENVI-CONH2: literature control peptide YHWYGYTPENVI (SEQ ID NO:6) linked to the FITC-Ahx tag ({FITC-Ahx}-YHWYGYTPENVI-NH2; SMILES CC[C@H](C)[C@H](NC(=O)[C@@H](NC(=O)[C@H](CC(N)=O)NC(=O)[C@H](CCC(=O)O)NC(=O)[C@@H]1CCCN1C(=O)[C@@H](NC(=O)[C@H](Cc1ccc(O)cc1)NC(=O)CNC(=O)[C@H](Cc1ccc(O)cc1)NC(=O)[C@H](Cc1c[nH]c2ccccc12)NC(=O)[C@H](Cc1c[nH]cn1)NC(=O)[C@H](Cc1ccc(O)cc1)NC(=O)CCCCCNC(=S)Nc1ccc2c(c1)C(=O)OC21c2ccc(O)cc2Oc2cc(O)ccc21)[C@@H](C)O)C(C)C)C(N)=O)
[2]
  Normalized MFI vIII: 9.7
293T cells
  Normalized MFI 293T: 7.6
[3]
  Normalized MFI WT: 4.5

## FITC-Ahx-VLGREEWSTSW-CONH2: VLGREEWSTSYW conjugated with FITC at the N-terminus via 6-aminohexanoic acid (Ahx) linker
293T cells
  Normalized MFI 293T: 5.1

## FITC-Ahx-FALGEA-CONH2: literature control peptide FALGEA (SEQ ID NO:5) linked to the FITC-Ahx tag ({FITC-Ahx}-FALGEA-NH2; SMILES CC(C)C[C@H](NC(=O)[C@H](C)NC(=O)[C@H](Cc1ccccc1)NC(=O)CCCCCNC(=S)Nc1ccc2c(c1)C(=O)OC21c2ccc(O)cc2Oc2cc(O)ccc21)C(=O)NCC(=O)N[C@@H](CCC(=O)O)C(=O)N[C@@H](C)C(N)=O)
[2]
  Normalized MFI vIII: 1.8
[2]; normalized MFI of vIII cell line over WT cell line
  Normalized MFI ratio VIII/WT: 2.6
293T cells
  Normalized MFI 293T: 0.9
[3]
  Normalized MFI WT: 0.7

## LEKGNTLSTSTV (phage displayed; Peptide selected from the NGS analysis, not showing specific binding to hEGFRvIII cells in flow cytometry) [peptide selected from NGS analysis of biopanning]
[1]
  specific binding to hEGFRvIII: did not show specific binding

B1: FITC-Ahx-…-CONH2 (peptide)
peptide: {FITC-Ahx}-YHWYGYTPENVI-NH2
SMILES: CC[C@H](C)[C@H](NC(=O)[C@@H](NC(=O)[C@H](CC(N)=O)NC(=O)[C@H](CCC(=O)O)NC(=O)[C@@H]1CCCN1C(=O)[C@@H](NC(=O)[C@H](Cc1ccc(O)cc1)NC(=O)CNC(=O)[C@H](Cc1ccc(O)cc1)NC(=O)[C@H](Cc1c[nH]c2ccccc12)NC(=O)[C@H](Cc1c[nH]cn1)NC(=O)[C@H](Cc1ccc(O)cc1)NC(=O)CCCCCNC(=S)Nc1ccc2c(c1)C(=O)OC21c2ccc(O)cc2Oc2cc(O)ccc21)[C@@H](C)O)C(C)C)C(N)=O
[4]
  Normalized MFI: 4.5

B2: LEKGNTLSTSTV phage displayed peptide (peptide)
peptide: LEKGNTLSTSTV
modifications: also: displayed on M13 phage coat protein
notes: not shown: M13 coat protein of the Ph.D.-12 library that carries the peptide
[5]
  binding result: no binding

B3: NESGITRIALQD phage displayed peptide (peptide)
peptide: NESGITRIALQD
modifications: also: displayed on M13 phage coat protein
notes: as for B2
[5]
  binding result: no binding

B4: FITC-Ahx-FALGEA-CONH2 (peptide)
peptide: {FITC-Ahx}-FALGEA-NH2
SMILES: CC(C)C[C@H](NC(=O)[C@H](C)NC(=O)[C@H](Cc1ccccc1)NC(=O)CCCCCNC(=S)Nc1ccc2c(c1)C(=O)OC21c2ccc(O)cc2Oc2cc(O)ccc21)C(=O)NCC(=O)N[C@@H](CCC(=O)O)C(=O)N[C@@H](C)C(N)=O
[6]
  Normalized MFI ratio vIII/WT: 2.6
[7]
  Normalized MFI: 1.8
